{
  "source": "paper PMC10117725",
  "about": "“From an Hsp90 - binding protein to a peptide drug” (microLife, 2022)",
  "molecules": {"B1": {"name": "Lpl1: model Lpl lipoprotein of S. aureus, parent protein of the peptides (protein)", "chain": "CGKGNETKEDSKEEQIKKSFAITLDMYPIKNLEDLYDKEGYRDSEFKKGDKGMWTIYTDFAKSNKPGELDDEGMVLNLDRNTRTAKGHYFVTTFYRNGKLPDEKNYKIEMKNNKIILLDEVKDDKLKQKIENFKFFGQYANLKELRKYNNGDVSINENVPSYDVEYKMSNKDEIVKELRSRYNISTEKSPILKMHIDGDLKGSSVGYRKLEIDFSKRENSKLSVIEFLSYKPAKK", "modifications": "left off: His tag, end not stated, kept", "notes": "model Lpl lipoprotein of S. aureus, parent protein of the peptides"}},
  "molecular_target": "T1, Hsp90α (Homo sapiens, UniProt P07900)",
  "T1 construct": "purchased Abcam",
  "assay_type": "binding",
  "details": "dot blot, 2 µg blotted on membrane, 20 µg recombinant Hsp90α at 4°C overnight, α-Hsp90α immunodetection",
  "method": "Two µg of each peptide was blotted (dot blot) directly on PDV nitrocellulose membrane and blocked with ROTI®Block (Carl Roth, Germany). After washing, the membrane was then incubated with 20 μg of recombinant Hsp90α (Abcam)/Lpl1-his protein at 4°C overnight. In case of interaction studies with Hsp90α, α-Hsp90α (produced in mouse, Abcam) was used as the primary antibody and for interaction studies with Lpl1-his, Anti-6X His tag antibody (also produced in mouse, Sigma-Aldrich, Germany) was used. Alkaline phosphatase conjugated goat-α-mouse IgG (Sigma-Aldrich, Germany) served as the secondary antibody. Detection was done using BCIP®/NBT solution (Sigma, Germany). Lpl1-his was isolated and purified as described in our previous paper (Tribelli et al. [2020]).",
  "data": [
    {"molecule": "B1", "values": [
      {"measurement": "Interaction with Hsp90α", "result": "Yes"}
    ]}
  ]
}
